According to US20140072558A1 (ANTIBODY AND RECEPTOR THERAPEUTICS, published 2014):

T1: FLAG-tagged water-soluble DLK1 (Homo sapiens (Human), UniProt P80370 25-302)
T1 construct: also called FLAG-DLK1; not shown: FLAG tag
T1 sequence: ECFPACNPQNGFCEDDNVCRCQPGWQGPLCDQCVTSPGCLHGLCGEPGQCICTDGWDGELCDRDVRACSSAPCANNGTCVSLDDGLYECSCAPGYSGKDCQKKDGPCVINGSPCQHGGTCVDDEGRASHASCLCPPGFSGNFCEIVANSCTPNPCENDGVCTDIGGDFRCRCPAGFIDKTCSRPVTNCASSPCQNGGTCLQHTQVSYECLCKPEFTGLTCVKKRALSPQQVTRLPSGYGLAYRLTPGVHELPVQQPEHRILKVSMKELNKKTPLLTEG

B1: ACVR2B-Fc (Fc fusion, UniProt Q13705 19-137, looked up)
chain: SGRGEAETRECIYYNANWELERTNQSGLERCEGEQDKRLHCYASWRNSSGTIELVKKGCWLDDFNCYDRQECVATEENPQVYFCCCEGNFCNERFTHLPEAGGPEVTYEPPPTAPTLLT
notes: extracellular domain; Prepared by attaching Fc to an extracellular part of ACVR2B; not shown: Fc
B2: DLK1-Fc fusion protein (Fc fusion)
chain: T1 sequence
notes: Water-soluble DLK1 joined to a human antibody Fc region; also called DLK1-Fc-FITC; not shown: human antibody Fc region
B3: DLK1H12 (scFv, V domains shown)
VH: QVQLVQSGGGLVKPGGSLRLSCAASEFTFSDYYMSWVRQAPGKGLEWLSYISGSGITTYYADSVKGRFTISRDNGKKSLYLEMNSLRAEDTAVYYCARLQGHCSGGACSNWFDAWGQGTLITVSS
VL: DIQMTQSPSSLSASVGDRLTITCRASQSILTYLNWYQQKPGKAPKLLIYAASSLQRGVPSRFSGSGSGTDFTLTISGLQPEDFATYYCQQGYGTPYTFGQGTKVDIK
notes: Monoclonal scFv on phage; VH3-11, O12
B4: activin A (ligand, UniProt P08476 311-426, looked up)
chain: GLECDGKVNICCKKQFFVSFKDIGWNDWIIAPSGYHANYCEGECPSHIAGTSGSSLSFHSTVINHYRMRGHSPFANLKSCCVPTKLRPMSMLYYDDGQNIIKKDIQNMIVEECGCS
notes: also called ligand of ACVR2B
B5: DLK1A05 (scFv, V domains shown)
VH: QMQLVESGGGLVQPGRSLRLSCAASGFTFDEHAMHWVRQAPGKGLEWVSGINWNSGKTGYADSVKGRFTISRDNGKNSLYLQMNSLRAEDTAVYYCAKSGGYGGNTNWYFDLWGRGTLVTVSS
VL: QFVLTQPPSVSGAPGQNVTISCIGTSSNIGVGYDVHWYQQVPGTAPKLLVYGNNNRPSGVPDRFSGSKSGTSASLAITGLQAEDEADYYCQSYDSRLGVVFGGGTKLTVL
notes: Monoclonal scFv on phage; VH3-9, V1-13
B6: ACVR1A-Fc (Fc fusion, UniProt Q04771 21-123, looked up)
chain: MEDEKPKVNPKLYMCVCEGLSCGNEDHCEGQQCFSSLSINDGFHVYQKGCFQVYEQGKMTCKTPPSPGQAVECCQGDWCNRNITAQLPTKGKSFPGTQNFHLE
notes: Control protein; not shown: Fc
B7: DLK1A04 (scFv, V domains shown)
VH: QVQLVESGAEVKKPGASVKVSCKASGYTFKDYAIHWVRQAPGQRLEWMGWINPGSGNTKYSHNFEGRVILTRDASANTAYLELPSLRSEDTAVYYCARSVSAYGSNYFDPWGQGTLITVSS
VL: DIQMTQSPSSLSASVGDRVTITCQASQDISNYLNWYQQKPGKAPKLLIYSTSNLQSGVPSRFSGSGSGTDFTLTISSLQPEDFATYYCQQLNSYPLTFGGGTKVDIK
notes: Monoclonal scFv on phage; VH1-3, L8
B8: DLK1B09 (scFv, V domains shown)
VH: QMQLVESGGRLVRPGGSLRLSCAASGFPFTSYAMNWVRQTPGKGLEWVSTITATSGKTYYADSVKGRFTISRDNSRNTLFLQMNSLRAEDTAVYYCVRGESCSGGACSDFDYWGQGALVTVSS
VL: QLVLTQPASVSGSPGQSVTISCTGTSSDIGRYNRVSWYQHHPGKAPKLILNDVTTRPSGFSNRFSGSKSGNTASLTISGLQAEDEADYSCGSYAGSYTYVFGTGTKVTVL
notes: Monoclonal scFv on phage; VH3-23, V1-4; also called B09 (phage clone)
B9: DLK1A10 (scFv, V domains shown)
VH: QVQLVESGGGLVQPGRSLRLSCAASGFTFDDYAMHWVRQAPGKGLEWVSGISWNSGSIGYADSVKGRFTISRDNAKNSLYLQMNSLRAEDTAVYYCARGPGLATGKGYADYWGQGTLVTVSS
VL: DIQMTQSPSSVSASVGDRVTITCRASQRISSWLAWYQQKPGRAPKLLIHSASTLHNGVPSRFSGSASGTDFTLTISSLQPEDYAIYYCQQGHSFPYTFGQGTKLEIK
notes: Monoclonal scFv on phage; VH3-9
B10: DLK1H06 (scFv, V domains shown)
VH: QVQLVQSGGGLIQPGGSLRLSCAASGFTFSLYGMSWVRQAPGKGLEWVSSIPGSGTRTHYADSVKGRFTISRDNSKNTLFLQMNSLRAEDTAVYYCAKSTAYLFDYWGPGTLVTVSS
VL: DIQMTQSPATLSLSPGERATLSCRASQSIRHYLAWYQQKPGQAPRLLIHGASSRATGIPDRFSGSGSGTDFTLTISRLEPEDFAVYYCQHYGSPLHSFGPGTKVEIK
notes: Monoclonal scFv on phage; VH3-23, A27

Legend:
[1] = target: T1, FLAG-tagged water-soluble DLK1; assay: ELISA
Protocol: (§1) Binding between ACVR2B and water-soluble DLK1 was confirmed by enzyme immunoassay (ELISA). To this end, 1 μg/ml of FLAG-tagged water-soluble DLK1 was coated on an immunoplate (Nunc) at 4° C. for 16 hours. Here, as a control for detecting non-specific binding, BSA was used. The coated plate was washed with PBST (0.05% Tween 20) three times, and blocked with 5% skim milk PBST. ACVR2B-Fc prepared by attaching Fc to an extracellular part of ACVR2B was subjected to serial dilution, and reacted at room temperature for 1 hour. After the reaction, the cells were washed with PBST (0.05% Tween 20) three times, and […] (1:5000) was incubated for 1 hour to measure a binding degree. After the reaction, the cells were washed with PBST (0.05% Tween 20) three times, a color reaction was performed using TMB (Sigma), and 2.5 M H₂SO₄ was added to stop the reaction. And then optical density was measured at 450 nm.

[2] = target: BSA (UniProt P02769 25-607); assay: ELISA: BSA coated as control for non-specific binding, ACVR2B-Fc serially diluted, anti-human IgG-HRP
Chain of BSA (P02769 25-607 limits assumed): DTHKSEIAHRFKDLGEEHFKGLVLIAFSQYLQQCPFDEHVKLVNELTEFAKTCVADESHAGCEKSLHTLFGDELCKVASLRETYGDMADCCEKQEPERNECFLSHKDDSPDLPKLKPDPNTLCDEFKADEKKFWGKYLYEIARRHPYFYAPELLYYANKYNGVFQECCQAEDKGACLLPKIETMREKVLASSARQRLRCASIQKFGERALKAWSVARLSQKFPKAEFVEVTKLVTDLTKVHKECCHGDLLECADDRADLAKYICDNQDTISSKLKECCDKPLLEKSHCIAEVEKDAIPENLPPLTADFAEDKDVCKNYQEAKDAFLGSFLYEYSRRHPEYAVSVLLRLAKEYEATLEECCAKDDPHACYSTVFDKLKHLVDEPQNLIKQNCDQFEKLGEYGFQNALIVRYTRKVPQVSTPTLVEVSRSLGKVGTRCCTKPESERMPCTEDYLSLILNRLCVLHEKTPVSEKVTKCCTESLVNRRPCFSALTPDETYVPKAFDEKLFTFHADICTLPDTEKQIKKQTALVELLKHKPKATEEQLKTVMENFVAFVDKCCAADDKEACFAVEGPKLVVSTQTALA
Protocol: as §1

[3] = target: T2, activin receptor type II B (ACVR2B) expressed in cells (UniProt Q13705 19-512, limits assumed); assay: flow cytometry, 1 ug DLK1-Fc-FITC on 293E cells
T2 construct: whole, on cells; also called ACVR2B-overexpressed cell line
Protocol: To confirm binding between water-soluble DLK1 and ACVR2B on actual cells, an experiment was performed using flow cytometry. The experiment was performed using CantoII (BD), and an experiment method was summarized as follows. […] The harvested cells were washed with cold DPBS twice, 1 μg of DLK1-Fc-FITC was added to react at 4° C. for 2 hours. DLK1-Fc-FITC used in the reaction was manufactured using a protein FITC labeling kit (Pierce). After the reaction, washing with 1% PBA (1% BSA in DPBS) buffer was performed, a degree of binding was determined by flow cytometry, and the results are shown in FIG. 15. In addition, the cells used above were subjected to western blotting to confirm the expression of ACVR2B (FIG. 14).

[4] = target: B2; assay: scFv-phage ELISA; OD on DLK1 divided by OD on a-myc
[5] = target: B2; assay: ELISA: activin A coated, DLK1-Fc added
[6] = target: B4; assay: ELISA: activin A coated 50 ng/ml
Protocol: To examine whether water-soluble DLK1 competitively bind to the ACVR2B receptor with activin A, enzyme immunoassay was performed. 50 ng/ml of activin A was coated and reacted with ACVR2B-Fc and FLAG-DLK1, and then the binding was detected. Here, ACVR2B was fixed to a concentration of 2 nM, FLAG-DLK1 was treated to have a concentration of 1 to 16 nM, and then a degree of competitive binding was measured. As controls, Fc and ACVR1A-Fc not binding to activin A were used.

B1: binds [1]; no binding [2].

B2: binds [3].

With B3 the Ratio [4] was 4.75.

B4: no binding [5].

B5 gave a Ratio [4] of 3.81.

B6: no binding [6].

Work on B7 yielded a Ratio [4] of 6.15.

B8 gave a Ratio [4] of 25.3.

Work on B9 yielded a Ratio [4] of 2.21.

B10 showed a Ratio [4] of 2.47.
